B1: KLHDC10 (parent)
chain: FGGTGIPFGESNGNGVHVCNVKYK

Variants of: B1
Assay: protein stability index of a GFP-peptide fusion (GPS, HEK-293T) (PSI 1-6); higher = more stable
Conditions: c terminus: a fixed tail appended
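Further: lentivirally expressed fusions sorted by FACS into six bins by GFP to DsRed ratio, PSI derived from sequencing read proportions per bin multiplied by bin number.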

Protein stability index: each site, then its substitutions
V18: Q 2.04, N 2.31, K 1.86, H 2.06, F 2.15, S 2.45, A 2.1, L 1.71, D 3.08, E 2.75, C 2.06, R 2.03, P 1.97, W 1.75, I 1.74, Y 2.19, G 2.24, T 2.27, M 2.24
H17: R 2.13, F 2.34, N 2.03, L 2.08, G 1.63, P 2.68, A 1.92, M 1.37, Q 2.45, V 2.32, S 3.15, E 2.48, K 2.01, I 1.91, D 2.54, Y 1.52, T 2.22, W 1.64, C 1.75
V21: E 2.31, A 1.74, D 2.14, C 2.04
G13: Y 2.09, T 2.58, V 2.17, C 1.59, W 2.03, S 1.92, A 2.02, N 1.7, P 1.91, K 2.06, Q 2.38, M 2.73, L 2.05, F 1.9, I 1.38, R 2.36, D 2.18, E 2.28, H 1.77
N14: T 1.98, D 1.87, V 2.67, S 1.9, E 2.47, P 1.91, M 1.99, H 2.12, F 1.62, Y 1.62, I 1.2, A 1.82, G 1.54, L 1.81, Q 2.03, R 2.04, K 1.81, C 1.87, W 3.08
C19: F 2.62, L 1.97, W 1.71, K 2.08, S 2.01, D 2.62, R 2.35, A 2.31, I 1.75, G 2.06, V 2.07, M 2.15, H 1.46, P 2.21, T 2.01, E 2.76, Q 2.29, N 2.38, Y 2.06
F8: C 3.02, P 4.12, L 3.04, V 2.83, W 1.98, S 3.62, E 4.3, K 3.84, H 2.65, Y 2.16, T 3.22, G 3.58, N 3.61, Q 3.75, I 2.5, M 3.02, D 4.16, R 3.37, A 3.78
N12: E 2.11, G 1.62, W 1.74, P 1.73, D 2.33, L 1.87, I 1.58, M 1.9, K 1.82, T 1.97, Q 2.06, A 1.85, F 1.41, S 1.74, R 1.51, H 2.22, C 1.63, Y 2.59, V 1.6
E10: W 2.59, Q 2.94, F 1.7, D 1.73, P 1.95, C 1.51, H 1.99, T 1.62, V 2.49, A 2.94, S 3.04, K 1.46, Y 1.45, R 2.46, L 2.43, M 2.26, N 3.06, I 2.39, G 1.68
G9: H 2.72, Q 1.88, R 1.76, P 2.44, L 1.39, A 1.85, V 2.57, K 1.79, Y 2.15, E 3.16, W 2.89, D 3.04, S 1.74, C 1.41, M 1.18, T 1.66, I 2.16, N 2.29
S11: F 1.72, G 1.54, L 1.62, H 2.2, Y 1.65, C 1.82, P 2.3, Q 2.06, E 2.82, M 2.25, T 1.96, N 1.91, R 1.97, V 2.35, A 1.97, W 2.4, I 2.73, K 1.87, D 2.52
I6: V 2.16, E 3.02, C 1.87, M 2.07, T 1.84, H 2.08, N 2.07, Q 2.27, F 2.3, A 2.1, L 2.39, D 3.29, P 1.94, W 2.27, R 1.72, S 1.88, K 2.2, G 1.96
G15: V 1.9, R 1.82, A 1.59, E 2.34, P 2.06, Y 1.42, L 1.73, M 1.52, I 1.77, T 1.92, F 1.49, D 2.3, K 2.1, W 1.62, H 1.9, Q 1.78, S 2.14, N 1.52, C 1.58
P7: A 1.41, E 2.44, V 2.92, I 1.73, L 3.6, K 2.01, H 2.13, Q 2.06, C 1.5, S 2.14, M 1.29, F 3.68, N 2.4, D 2.92, G 2.23, R 2.07, Y 2.5, T 2.33
N20: L 1.36, H 1.48, S 1.65, P 1.52, F 2.06, D 1.98, R 2.15, C 1.11, A 2.35, W 2.83, M 1.38, E 1.92, G 1.66, Q 1.87, K 2.44, I 1.82, Y 2.23, V 1.55, T 1.75
T4: C 1.94, E 2.68, A 2.02, R 1.93, Q 1.6, I 3.13, D 2.52, G 2.03, W 2.52, P 2.91, N 1.98, M 1.65, V 2.5, H 1.9, Y 1.68, L 1.82, F 2.08, K 1.72, S 1.82
V16: Q 2.04, S 2.27, I 2.46, C 1.19, E 2.97, L 1.39, D 2.42, M 1.89, P 2.43, H 2.1, G 2.47, N 2.06, W 2.49, Y 1.89, A 2.6, T 1.98, K 2.15, F 2.23, R 2.97
G3: S 2.61, Q 2.88, Y 1.95, M 2.29, T 2.81, V 2.98, N 2.35, R 2.77, P 2.78, W 1.42
G5: R 2, L 1.89, A 2.07, K 1.52, D 2.95, Q 2.42, E 3.42, Y 1.34, F 1.92, C 1.71, H 1.92, I 3.13, W 2.69, V 1.9, M 2.47, P 1.86, T 2.18, N 2.87, S 2.39
